Results as given in patent US6403561.

Tested on: non-sulphated CCK-8 (Asp-Tyr-Met-Gly-Trp-Met-Asp-Phe-NH2)

Chain of membrane-bound tripeptidylpeptidase II purified from rat brain (cerebral cortex) membranes (chain, as listed by the source): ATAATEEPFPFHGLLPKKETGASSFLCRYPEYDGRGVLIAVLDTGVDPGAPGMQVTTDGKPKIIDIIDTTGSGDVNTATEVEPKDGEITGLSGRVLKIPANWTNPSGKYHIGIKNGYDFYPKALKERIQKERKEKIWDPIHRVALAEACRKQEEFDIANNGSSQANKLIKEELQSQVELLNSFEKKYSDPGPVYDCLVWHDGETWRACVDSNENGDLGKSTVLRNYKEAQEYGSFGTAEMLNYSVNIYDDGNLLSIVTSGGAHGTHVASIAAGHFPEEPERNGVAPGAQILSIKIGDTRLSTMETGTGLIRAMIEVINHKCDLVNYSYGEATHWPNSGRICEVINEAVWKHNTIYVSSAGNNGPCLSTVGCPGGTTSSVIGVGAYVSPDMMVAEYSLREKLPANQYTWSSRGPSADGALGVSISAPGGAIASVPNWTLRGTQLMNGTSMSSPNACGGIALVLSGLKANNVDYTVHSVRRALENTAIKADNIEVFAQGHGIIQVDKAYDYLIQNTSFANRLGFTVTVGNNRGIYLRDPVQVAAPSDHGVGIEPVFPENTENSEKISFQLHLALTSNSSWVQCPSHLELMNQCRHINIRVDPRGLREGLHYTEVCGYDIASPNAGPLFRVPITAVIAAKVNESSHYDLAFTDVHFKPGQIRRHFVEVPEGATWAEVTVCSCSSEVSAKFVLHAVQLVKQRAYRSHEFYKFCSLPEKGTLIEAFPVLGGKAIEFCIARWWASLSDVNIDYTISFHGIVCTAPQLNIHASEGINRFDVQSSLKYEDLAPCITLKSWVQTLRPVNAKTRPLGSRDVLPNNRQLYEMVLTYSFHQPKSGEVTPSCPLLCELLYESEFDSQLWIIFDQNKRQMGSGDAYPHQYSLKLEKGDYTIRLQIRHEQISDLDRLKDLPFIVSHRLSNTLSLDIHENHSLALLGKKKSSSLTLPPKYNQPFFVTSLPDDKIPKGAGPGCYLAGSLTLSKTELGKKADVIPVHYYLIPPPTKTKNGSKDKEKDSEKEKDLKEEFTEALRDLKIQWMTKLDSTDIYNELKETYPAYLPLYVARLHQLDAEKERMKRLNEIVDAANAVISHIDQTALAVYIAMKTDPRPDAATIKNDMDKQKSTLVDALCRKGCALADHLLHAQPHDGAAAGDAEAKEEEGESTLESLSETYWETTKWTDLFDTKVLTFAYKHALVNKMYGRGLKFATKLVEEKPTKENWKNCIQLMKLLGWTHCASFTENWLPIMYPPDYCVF

“membrane-bound tripeptidylpeptidase II purified from rat brain (cerebral cortex) membranes” was tested, and the “hydrolysis of CCK-8 (products CCK-5 and Gly-Trp-Met measured fluorimetrically after HPLC)” value was “only one enzyme is responsible for the two cleavages of the molecule CCK-8”.
